Reference: publication PMC6033261 (Methods in molecular biology (Clifton, N.J.), 2015)

Target: His-Rab7 (UniProt P51149 1-207)
Test: bead-based flow cytometry

Chain of His-Rab7 (P51149 whole entry): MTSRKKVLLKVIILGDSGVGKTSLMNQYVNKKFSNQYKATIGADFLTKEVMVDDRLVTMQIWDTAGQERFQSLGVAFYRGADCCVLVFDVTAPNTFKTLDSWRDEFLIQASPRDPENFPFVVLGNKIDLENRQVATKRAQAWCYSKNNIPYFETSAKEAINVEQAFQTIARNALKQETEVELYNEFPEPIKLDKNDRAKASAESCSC

B1: GST-RILP (Rab binding domain of RILP only) (domain or fragment, UniProt Q96NA2 240-316, looked up)
chain: QCRFSREEFEQILQERNELKAKVFLLKEELAYFQRELLTDHRVPGLLLEAMKVAVRKQRKKIKAKMLGTPEEAESSE
Kd: 1870 ± 250 nM
